# The Human Domainome abundance scans (Beltran et al. 2025)
# ± gives the uncertainty stated by the source.
# B1: Gamma-crystallin D, residues 90 to 170; numbered along this chain, P07320 (parent)
# chain: IRLYEREDYRGQMIEFTEDCSCLQDRFRFNEIHSLNVLEGSWVLYELSNYRGRQYLLMPGDYRRYQDWGATNARVGSLRRV
# Variants of: B1
# Test: abundance fitness (aPCA) (normalised: wild type 0, dead -1); higher = more abundant; growth selection in yeast, the domain comes from the species named
# Settings: Homo sapiens
row,Variant,abundance fitness
1,R74M,-0.224 ± 0.068
2,R74A,-0.015 ± 0.085
3,R74Y,-0.092 ± 0.26
4,R74F,-0.023 ± 0.13
5,R74E,0.132 ± 0.14
6,R74N,0.098 ± 0.21
7,Y50W,-0.283 ± 0.12
8,Y50N,0.003 ± 0.16
9,Y50H,-0.052 ± 0.3
10,L38D,0.064 ± 0.12
11,L38H,0.024 ± 0.15
12,L38M,-0.035 ± 0.097
13,Q12H,0.021 ± 0.16
14,Q12A,-0.055 ± 0.076
15,S41P,-0.171 ± 0.097
16,S41W,-0.207 ± 0.1
17,S41G,0.064 ± 0.062
18,S41H,-0.006 ± 0.17
19,Q66N,-0.074 ± 0.28
20,Q66F,-0.004 ± 0.15
21,Q66T,-0.073 ± 0.087
22,Q66E,-0.022 ± 0.13
23,Q66P,-0.016 ± 0.1
24,V37E,-1.11 ± 0.46

row,Variant,abundance fitness
1,V37G,-0.218 ± 0.076
2,V37S,0.137 ± 0.079
3,R53Y,0.026 ± 0.24
4,R53M,-0.045 ± 0.099
5,R53I,-0.158 ± 0.18
6,R53V,-0.056 ± 0.088
7,R53G,0.015 ± 0.064
8,R53E,-0.046 ± 0.1
9,Q24E,0.029 ± 0.13
10,Q24W,-0.073 ± 0.099
11,Q24G,0.01 ± 0.055
12,Q24S,-0.008 ± 0.11
13,Q24N,-0.022 ± 0.067
14,L47W,0.048 ± 0.074
15,L47F,0.008 ± 0.2
16,L47I,-0.16 ± 0.21
17,R51Q,-0.132 ± 0.15
18,R51F,-0.147 ± 0.17
19,R51Y,-0.108 ± 0.31
20,R51A,-0.024 ± 0.08
21,R51W,-0.471 ± 0.12
22,R51S,-0.039 ± 0.079
23,H33Q,0.04 ± 0.15
24,H33G,0.079 ± 0.076

row,Variant,abundance fitness
1,H33F,-0.023 ± 0.29
2,H33W,0.02 ± 0.12
3,H33E,0.078 ± 0.13
4,H33V,0.04 ± 0.059
5,H33R,-0.005 ± 0.083
6,V75Q,-0.145 ± 0.075
7,V75G,-0.024 ± 0.073
8,V75D,-0.988 ± 0.25
9,V75K,-0.683 ± 0.25
10,V75F,-0.037 ± 0.18
11,G40H,0.132 ± 0.32
12,G40C,-0.039 ± 0.17
13,G40I,-0.113 ± 0.11
14,G40L,-0.143 ± 0.066
15,G40M,-0.13 ± 0.12
16,G40N,-0.228 ± 0.14
17,E46Y,-0.626 ± 0.42
18,E46V,-0.325 ± 0.082
19,L78E,-0.873 ± 0.34
20,L78M,0.126 ± 0.11
21,L78I,0.061 ± 0.17
22,L78H,-0.426 ± 0.18
23,L78G,-0.565 ± 0.09
24,G52D,-0.775 ± 0.25

row,Variant,abundance fitness
1,G52K,-0.849 ± 0.27
2,G52Q,-0.599 ± 0.23
3,G52L,-0.432 ± 0.1
4,G52N,-0.705 ± 0.31
5,S77F,-0.879 ± 0.45
6,S77P,-1.04 ± 0.29
7,S77W,-1.01 ± 0.29
8,S77Q,-1.05 ± 0.42
9,S77K,-0.654 ± 0.35
10,W42C,-0.272 ± 0.082
11,W42P,-0.923 ± 0.25
12,W42I,-0.029 ± 0.2
13,W42V,0.114 ± 0.069
14,W42N,-0.774 ± 0.28
15,W42R,-0.994 ± 0.092
16,N30E,0.092 ± 0.16
17,N30G,0.054 ± 0.071
18,N30R,0.024 ± 0.08
19,Q54V,-0.193 ± 0.085
20,Q54E,0.018 ± 0.14
21,Q54D,0.007 ± 0.19
22,Q54A,-0.119 ± 0.093
23,Q54I,-0.245 ± 0.17
24,N72V,0.065 ± 0.058

row,Variant,abundance fitness
1,N72A,-0.08 ± 0.1
2,W68A,0.043 ± 0.047
3,M58F,-0.073 ± 0.17
4,M58L,0.015 ± 0.087
5,M58V,0.032 ± 0.063
6,M58W,-0.118 ± 0.09
7,M58A,0.032 ± 0.065
8,M58S,0.055 ± 0.072
9,E31Q,0.116 ± 0.17
10,E31H,0.059 ± 0.22
11,E31S,-0.123 ± 0.099
12,E31W,0.078 ± 0.1
13,D25N,-0.197 ± 0.24
14,D25F,-0.036 ± 0.14
15,D25P,0.073 ± 0.15
16,D25L,0.06 ± 0.095
17,D67P,-0.19 ± 0.076
18,D67S,-0.005 ± 0.082
19,D67V,-0.043 ± 0.084
20,D67A,-0.101 ± 0.087
21,D67L,-0.084 ± 0.086
22,D67R,-0.208 ± 0.075
23,L35S,-0.035 ± 0.097
24,L35H,-0.535 ± 0.36

row,Variant,abundance fitness
1,L56Q,-0.054 ± 0.15
2,L56I,0.114 ± 0.15
3,L56N,0.022 ± 0.28
4,L56Y,-0.207 ± 0.15
5,L56W,0.017 ± 0.07
6,L56K,0.035 ± 0.13
7,R28H,-0.32 ± 0.16
8,R28L,-0.043 ± 0.079
9,R28Y,-0.004 ± 0.2
10,R28I,0.029 ± 0.23
11,R28C,-0.047 ± 0.083
12,A70Y,-0.033 ± 0.2
13,A70H,0.045 ± 0.15
14,A70G,-0.047 ± 0.061
15,C20D,0.108 ± 0.14
16,C20T,0.015 ± 0.1
17,C20N,0.042 ± 0.15
18,C20R,0.069 ± 0.052
19,C20G,0.052 ± 0.05
20,C20K,-0.096 ± 0.24
21,V43N,-0.157 ± 0.28
22,V43D,-0.017 ± 0.17
23,V43S,-0.029 ± 0.081
24,R6F,-0.262 ± 0.26

row,Variant,abundance fitness
1,R6K,-0.027 ± 0.17
2,R6C,0.069 ± 0.096
3,R6E,-0.018 ± 0.13
4,R6P,-1.02 ± 0.2
5,R6S,-0.01 ± 0.087
6,I1M,-0.021 ± 0.14
7,I1L,-0.1 ± 0.34
8,C22Q,-0.023 ± 0.12
9,C22F,0.113 ± 0.23
10,C22V,-0.08 ± 0.081
11,C22W,-0.107 ± 0.086
12,C22P,-0.104 ± 0.11
13,C22S,0.015 ± 0.069
14,E39H,0.165 ± 0.24
15,E39L,-0.061 ± 0.079
16,E39K,-0.065 ± 0.14
17,E39G,0.084 ± 0.075
18,E39W,-0.176 ± 0.1
19,E39R,0.016 ± 0.069
20,Y4L,-0.646 ± 0.17
21,Y4A,-0.472 ± 0.13
22,Y4D,0.074 ± 0.32
23,Y4V,-0.82 ± 0.16
